Laboratory results from the supplement of paper PMC9732359.
± gives the uncertainty stated by the source.

Assay: protein stability index of a GFP-peptide fusion (yeast GPS) (PSI 1-4); higher = more stable; sorted into four equal gates, so the index is relative within each strain
Procedure, shortened: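 Peptides tiling yeast proteins in 17-residue segments were fused downstream of GFP, with Cherry expressed from the same plasmid. As a pooled library in yeast, mid-log cultures grown in leucine-free medium were sorted into four equal gates by GFP/Cherry fluorescence ratio. Gate plasmids were PCR-amplified and Illumina-sequenced, and barcodes linked reads to strains. Each peptide received a protein stability index equal to the sum of each gate's read frequency times its gate number.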

Sequence	protein stability index (doa10∆)	protein stability index (pdr5∆)	protein stability index (san1∆)	protein stability index (ubr1∆)
NNPLLLIVDVKQQGVGL [RPN8]	1.27 ± 0.14	1.87 ± 0.1	1.87 ± 0.15	2.15 ± 0.1
SYLETLTALGKEKEKER [MED2]	2.57 ± 0.16	1.93 ± 0.12	2.34 ± 0.17	2.92 ± 0.057
ANIFRIHSKSMSVERGI [RPT1]	3.16 ± 0.11	3.01 ± 0.14	3.18 ± 0.13	2.9 ± 0.13
DVLKENNDADKGRSYAY [RIP1]	3.48 ± 0.13	3.5 ± 0.15	3.25 ± 0.092	3.03 ± 0.26
SPTENGVFDPASYAKYL [RPL22A]	2.98 ± 0.051	3.19 ± 0.061	3.08 ± 0.045	2.88 ± 0.043
TLELSAQFRVPRYHSKN [SWP82]	2.52 ± 0.067	2.72 ± 0.056	2.49 ± 0.065	2.74 ± 0.041
KLAFGLTKLNEDDLVGV [TAF14]	2.94 ± 0.092	3.15 ± 0.072	3.25 ± 0.054	3 ± 0.057
RFKVVKVSGVSLLALWK [RPS23A]	2.55 ± 0.22	1.59 ± 0.14	1.71 ± 0.14	1.81 ± 0.14
VEKGVNPTKSKEILDNI [ECM29]	3.26 ± 0.14	3.5 ± 0.12	3.37 ± 0.25	3.62 ± 0.14
VWAPTQKCFKLTHRLGG [POP1]	2.2 ± 0.056	1.88 ± 0.056	2.3 ± 0.085	2.47 ± 0.054
KEPRLVIVTDPRLDAQA [RPS0B]	3.41 ± 0.25	3.42 ± 0.17		2.61 ± 0.16
IVLDEVRNKSYPVYTRL [DIS3]	2.93 ± 0.051	2.65 ± 0.056	2.99 ± 0.067	1.69 ± 0.027
PRVIEPVYTAQWSATWI [PRP8]	1.8 ± 0.072	2.17 ± 0.054	2.08 ± 0.07	2.13 ± 0.046
DDDDDEDEEEEEEVTDQ [QCR6]	3.02 ± 0.061	3.73 ± 0.22	3.4 ± 0.047	3.4 ± 0.12
TGHSQGLVTAVAIAETD [FAS1]	3.25 ± 0.14	3.44 ± 0.078	3.29 ± 0.098	3.25 ± 0.095
VQNLRSWETKLKQNILE [CSN9]	1.83 ± 0.077	2.04 ± 0.094	2.3 ± 0.11	1.82 ± 0.083
RNEDARRNLRYGDRMKL [RPO31]	3.37 ± 0.096	3.38 ± 0.084	3.21 ± 0.08	3.38 ± 0.065
TGAGKGSIGAEVLQGLL [FAS2]	3.48 ± 0.088	3.56 ± 0.063	3.47 ± 0.066	2.96 ± 0.067
NKNQLLKRNRIRNARSI [POP1]	2.93 ± 0.071	3.1 ± 0.071	2.84 ± 0.059	3 ± 0.055
RGNIKVMFATNRPNTLD [RPT1]	2.91 ± 0.079	3.05 ± 0.088	3.02 ± 0.063	2.98 ± 0.085

Sequence	protein stability index (doa10∆)	protein stability index (pdr5∆)	protein stability index (san1∆)	protein stability index (ubr1∆)
FSHPAHQQRMSRTAADI [YCG1]	2.01 ± 0.07	2.15 ± 0.093	2.4 ± 0.074	2.13 ± 0.06
KHVGFELLSMGNAKESK [SRP72]	2.88 ± 0.11	2.03 ± 0.14	2.4 ± 0.18	3.24 ± 0.14
AVHNGGRKHVAALRTVK [RPL9A]				2.88 ± 0.19
DLLPNSFAKLVPCEGKD [SMC2]	2.2 ± 0.04	2.73 ± 0.038	2.46 ± 0.053	2.45 ± 0.039
KPSFSFGVPNSSKNETS [YLR335W/NUP2]	2.13 ± 0.077	1.64 ± 0.082	2.46 ± 0.098	1.5 ± 0.059
NFARQLLFNNDFPLLKV [RRP40]	2.91 ± 0.05	2.02 ± 0.049	2.06 ± 0.08	2.12 ± 0.037
EGWFYKRAASVARHIYM [RPS19A]	1.97 ± 0.16	2.51 ± 0.22	1.99 ± 0.14	2.33 ± 0.17
LGWIHTQTEELKFMAAS [PRP8]	2.59 ± 0.087	2.62 ± 0.077	2.64 ± 0.063	2.71 ± 0.063
GNSKDDLLDMIQFGAKN [ISW2]	3.14 ± 0.2	2.89 ± 0.16	2.95 ± 0.11	2.92 ± 0.093
KQENSSRFTNVSVIAPE [YMR153W/NUP53]	2.71 ± 0.065	2.54 ± 0.055	1.59 ± 0.062	2.49 ± 0.033
RGVDAGKGNTFEKVGSH [RPN14]	2.71 ± 0.24	2.98 ± 0.17	3.67 ± 0.11	3.33 ± 0.12
EKLNKTDENTPSADGAD [ITC1]	3.35 ± 0.098	3.29 ± 0.061	3.01 ± 0.054	3.05 ± 0.05
VKIIRKSETSGRYASYR [RPB5]	3.09 ± 0.076	3.04 ± 0.05	3.01 ± 0.053	3.09 ± 0.045
QNRRLAFEELEGSWDRG [PRP8]	2.91 ± 0.17	3.31 ± 0.17	3.24 ± 0.15	3.31 ± 0.16
SSFRPCPLSQQFCGIKE [BRR2]	2.45 ± 0.073	1.9 ± 0.054	2.38 ± 0.068	2.31 ± 0.037
IITQYVFESLEINNLIQ [ARP9]	3.2 ± 0.098	2.93 ± 0.081	2.8 ± 0.12	2.96 ± 0.1
SKEDTLRLCLDIVPYFL [RPN1]	1.92 ± 0.05	1.92 ± 0.033	1.58 ± 0.081	2.12 ± 0.057
GCLIKNLPRTKAKSVVN [RMP1]	2 ± 0.11	2.52 ± 0.2	1.92 ± 0.17	2.13 ± 0.12
IGTKRFDSEKSGDREVQ [RPT5]	3.15 ± 0.19	3.51 ± 0.2	2.8 ± 0.26	3.41 ± 0.12
ARKELPIFDYIHIDALE [SIR3]	2.3 ± 0.053	2.34 ± 0.056	2.21 ± 0.059	2.5 ± 0.047
